Reference: US20240299510A1

Experiments:
HIT01-Combo3 = test: BLI (Octet); antibody IgG 50 ug/ml on AHC sensor, immunogen from 500 nM in 2x dilutions
HIT01-K21Q-R218E [1] = test: as above
human PCSK9 (human) = human PCSK9 (human) (UniProt Q8NBP7); test: BLI (Octet) blocking; wt PCSK9 on Ni-NTA sensor, 50 ug/ml AMG145 for 300 s, then NHP serum (competitor) at 200-fold dilution
HIT01-K21Q-R218E [2] = test: BLI (Octet) blocking; HIT01-K21Q-R218E on Ni-NTA sensor, 50 ug/ml AMG145 for 300 s, then NHP serum (competitor) at 200-fold dilution

Kd (HIT01-Combo3) [nM] | Kd (HIT01-K21Q-R218E [1]) [nM] | reduction of serum response when the probe is blocked (human PCSK9 (human)) [%] | reduction of serum response when the probe is blocked (HIT01-K21Q-R218E [2]) [%] | Substance
112 | 58 | – | – | Alirocumab (antibody)
0.005 | < 0.001 | 50 | 50 | AMG145 (antibody)
